{"source": "paper PMC10693595", "about": "(2023)", "molecular_target": "VZV glycoprotein B H527P on extracellular vesicles (varicella-zoster virus (VZV)) (UniProt P09257)", "assay": "cryo-EM structure; cryo-electron tomography with subtomogram averaging (EMAN2) of gB[H527P] in the membranes of extracellular vesicles from BHK-21 cells; C3 symmetry applied; two classes by focused classification", "data": [{"substance": "VZV glycoprotein B H527P on extracellular vesicles (from UniProt P09257 72-931) (natural protein)", "values": [{"measurement": "stoichiometry N", "value": 3}]}]}
